Test results from the supplement of paper PMC9732359.
± gives the uncertainty stated by the source.

Assay: protein stability index of a GFP-peptide fusion (yeast GPS) (PSI 1-4); higher = more stable; sorted into four equal gates, so the index is relative within each strain
Details: doa10∆
Summary of the method: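 Plasmids isolated from each sorting gate were PCR-amplified and Illumina-sequenced, and barcodes assigned the reads to strains. The gates, four of equal size, were set by GFP/Cherry fluorescence ratio on mid-log cultures in leucine-free medium. These cultures were yeast carrying a pooled library of tiled 17-residue yeast protein peptides fused downstream of GFP on a plasmid that also expresses Cherry. The protein stability index is the sum of every gate's read frequency times its gate number.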

Sequence | protein stability index
AGYTDNVIRVWQVMTAN [ASC1] | 1.56 ± 0.14
AHSLSPKDYIKKLLEVH [CDC53] | 1.7 ± 0.042
AIALAVRLGEEDMIRSV [RPN1] | 3.42 ± 0.14
AIGYPTLPSVGHTLINN [RPP0] | 3.06 ± 0.21
AIITDDLDTVLKKDIES [SRP72] | 1.99 ± 0.047
AIKELNYNRIAKICALL [NUT1] | 2.41 ± 0.059
AILQKSLKNVTEKNREI [YIL149C/MLP2] | 3.01 ± 0.051
AILVPMTVNDQPIEKNG [YJR042W/NUP85] | 2.44 ± 0.11
AIMKPYYLWTGKQVFSL [RPO31] | 2.71 ± 0.13
AIRKNGQIDFWYQFSNS [SIN4] | 2.09 ± 0.087
AISTGAKIDVMLTIARL [RPN7] | 3.31 ± 0.16
AITNTGPREDTTRVGGG [RPS5] | 3.04 ± 0.074
AKALESLASCLRSTEYS [POP1] | 3.08 ± 0.16
AKEELNGLKDQLNEERS [YIL149C/MLP2] | 3.3 ± 0.14
AKETHTKPSETPATIVK [YOR098C/NUP1] | 3.28 ± 0.092
AKGVYRPNGRKDHDLKI [POP1] | 2.88 ± 0.078
AKKQNRPLPQWIRLRTN [RPL39] | 1.95 ± 0.063
AKLIRSAIEHTTLKSVT [RPO21] | 3.46 ± 0.15
AKLWFYIYLSHETLARS [RPN3] | 1.69 ± 0.088
AKNETNSESDSKSDSDS [ITC1] | 3.01 ± 0.05
AKPDARTQAGDIVSIDI [MTW1] | 3.27 ± 0.13
AKRNLDANPSSQIIARN [SMC2] | 2.49 ± 0.083
AKSTPNTNPSPLKTQTK [GAL11] | 2.82 ± 0.051
AKTELNEVSLAIKKSSM [SMC2] | 3.03 ± 0.06
AKTFIDLESSSPELKAD [RPS7B] | 3.03 ± 0.086

Sequence | protein stability index
ALAFCEIGITQQRIVSA [RRP4] | 1.71 ± 0.11
ALDIVCSDFVKILNLEK [NUT1] | 2.7 ± 0.069
ALENDVATNIVNEDPIF [YML103C/NUP188] | 2.94 ± 0.051
ALFFDPSLNPIPHFIDN [PRP8] | 2.64 ± 0.058
ALILADSEIEISSEKLL [RPP1A] | 1.95 ± 0.13
ALIRRDFTLIPRMASVF [CDC53] | 2.12 ± 0.13
ALLNFVLPKIFNSVKSF [SNF2] | 2.44 ± 0.094
ALPRKLRRRTASHNVRR [POP1] | 2.91 ± 0.058
ALRLSMEEEQQRQERLR [RPN10] | 3.33 ± 0.16
ALSLLYHLLNYDPIKRI [SSN3] | 2.56 ± 0.073
AMHNSKAASSTRIFQAL [POP1] | 2.59 ± 0.093
ANALGGLGVNRRILAAA [SSN3] | 1.77 ± 0.068
ANANANATANATANATA [SNF11] | 3.14 ± 0.037
ANIELTWAEGTFEQFKD [RPC37] | 3.25 ± 0.12
ANLGKYGILSIDDLIHE [RPL7A] | 1.78 ± 0.092
ANTGGQDKIELSEEETL [SNF2] | 2.62 ± 0.12
APIPKGRVKYTKRQKHF [POP1] | 1.2 ± 0.13
APIQLKIDLLSGQFYFR [RGR1] | 2.63 ± 0.14
APNNSNGGSEEEITCAL [MED7] | 3.45 ± 0.094
APQLFPYGSFHQQQLQQ [DSN1] | 2.77 ± 0.076
APSANQGDEALSVDDIR [RTT102] | 3.15 ± 0.093
APTGSGKTNIALLTVLK [BRR2] | 2.88 ± 0.067
APVEVQEDFEVVEEFTP [RPS5] | 3.31 ± 0.076
AQDSLTVTIASSLNLED [RPB8] | 1.65 ± 0.048
AQDVALAKKWFLQHPDE [PRP8] | 2.7 ± 0.089

Sequence | protein stability index
AQFTFGKAATAKETHTK [YOR098C/NUP1] | 2.84 ± 0.13
AQGTKFRISLGLPVGAI [RPL23A] | 1.94 ± 0.1
AQLAKAKTELNEVSLAI [SMC2] | 3 ± 0.077
AQQVPPYGVYHPPFIKY [SIN4] | 2.99 ± 0.12
AQRLQISDYQQLESIYF [SWI1] | 2.38 ± 0.05
ARDIISHNFQNAIFQME [PCI8] | 2.79 ± 0.063
ARHKKKVENLDYMYENG [YML031W/NDC1] | 3.41 ± 0.15
ARIALRHLEKEGIIKPI [RPS25A] | 2.98 ± 0.092
ARIVRVRSREDRKNRAP [RPS26A] | 3.55 ± 0.23
ARNVTFDSLRNFIVHSP [GRR1] | 2.14 ± 0.063
ARQRGKLKKSEEKVLST [SRP68] | 3.28 ± 0.19
ARWPAKSVKFVQGLLQN [RPL17A] | 2.35 ± 0.097
ARYYRTVAVLPPNWKYE [RPS13] | 1.89 ± 0.044
ASAASEAIRDPKNSSSP [SSN8] | 2.61 ± 0.19
ASAPLCSPKLPVEKVQR [DLS1] | 2.78 ± 0.068
ASITPYKLVNKNKENNT [RPN4] | 1.08 ± 0.078
ASLVDYVQVRQPIFVAH [RPS5] | 1.99 ± 0.1
ASLVPEGNQGSLQEDVS [MED8] | 3.19 ± 0.096
ASPHASVRTAVFSALKN [ECM29] | 1.56 ± 0.051
ASSTPIPVLGKPTDATG [YOR098C/NUP1] | 2.43 ± 0.055
ASVRIKDKFNQIPLHRA [NAS6] | 2.55 ± 0.095
ASYAKYLIDHIKVEGAV [RPL22A] | 2.95 ± 0.17
ATDISGELRDYIEDFLL [YJR042W/NUP85] | 3.31 ± 0.1
ATFLKDDLPYYVNALAD [QCR2] | 2.37 ± 0.047

Same assay, conditions: pdr5∆

Sequence | protein stability index
AGYTDNVIRVWQVMTAN [ASC1] | 1.35 ± 0.08
AHSLSPKDYIKKLLEVH [CDC53] | 2.23 ± 0.064
AIALAVRLGEEDMIRSV [RPN1] | 3.4 ± 0.13
AIGYPTLPSVGHTLINN [RPP0] | 2.65 ± 0.13
AIITDDLDTVLKKDIES [SRP72] | 2.32 ± 0.047
AIKELNYNRIAKICALL [NUT1] | 2.44 ± 0.065
AILQKSLKNVTEKNREI [YIL149C/MLP2] | 2.79 ± 0.064
AILVPMTVNDQPIEKNG [YJR042W/NUP85] | 1.79 ± 0.073
AIMKPYYLWTGKQVFSL [RPO31] | 2.91 ± 0.11
AIRKNGQIDFWYQFSNS [SIN4] | 2.08 ± 0.08
AISTGAKIDVMLTIARL [RPN7] | 3.23 ± 0.099
AITADLGSSEAENLLQL [YGL172W/NUP49] | 1.31 ± 0.21
AITNTGPREDTTRVGGG [RPS5] | 3.05 ± 0.073
AKALESLASCLRSTEYS [POP1] | 3.25 ± 0.14
AKEELNGLKDQLNEERS [YIL149C/MLP2] | 3.42 ± 0.17
AKETHTKPSETPATIVK [YOR098C/NUP1] | 3.17 ± 0.066
AKGVYRPNGRKDHDLKI [POP1] | 3.08 ± 0.052
AKKQNRPLPQWIRLRTN [RPL39] | 2.69 ± 0.043
AKLIRSAIEHTTLKSVT [RPO21] | 2.96 ± 0.2
AKLWFYIYLSHETLARS [RPN3] | 1.4 ± 0.086
AKNETNSESDSKSDSDS [ITC1] | 3.03 ± 0.049
AKPDARTQAGDIVSIDI [MTW1] | 3.53 ± 0.13
AKRNLDANPSSQIIARN [SMC2] | 2.79 ± 0.076
AKSTPNTNPSPLKTQTK [GAL11] | 2.94 ± 0.046
AKTELNEVSLAIKKSSM [SMC2] | 3.12 ± 0.087
AKTFIDLESSSPELKAD [RPS7B] | 3.4 ± 0.077

Sequence | protein stability index
ALAFCEIGITQQRIVSA [RRP4] | 2.31 ± 0.11
ALDIVCSDFVKILNLEK [NUT1] | 2.7 ± 0.07
ALENDVATNIVNEDPIF [YML103C/NUP188] | 3.1 ± 0.068
ALFFDPSLNPIPHFIDN [PRP8] | 2.77 ± 0.047
ALILADSEIEISSEKLL [RPP1A] | 1.87 ± 0.11
ALIRRDFTLIPRMASVF [CDC53] | 2.39 ± 0.072
ALLNFVLPKIFNSVKSF [SNF2] | 1.71 ± 0.066
ALPRKLRRRTASHNVRR [POP1] | 3.06 ± 0.06
ALRLSMEEEQQRQERLR [RPN10] | 3.06 ± 0.26
ALSLLYHLLNYDPIKRI [SSN3] | 2.05 ± 0.051
AMHNSKAASSTRIFQAL [POP1] | 2.54 ± 0.078
ANALGGLGVNRRILAAA [SSN3] | 1.69 ± 0.069
ANANANATANATANATA [SNF11] | 3.37 ± 0.037
ANDHDESIDVDMDAESN [SMC3] | 2.37 ± 0.28
ANIELTWAEGTFEQFKD [RPC37] | 3.18 ± 0.076
ANLGKYGILSIDDLIHE [RPL7A] | 1.98 ± 0.094
ANTGGQDKIELSEEETL [SNF2] | 2.8 ± 0.25
APIPKGRVKYTKRQKHF [POP1] | 1.9 ± 0.12
APIQLKIDLLSGQFYFR [RGR1] | 2.86 ± 0.16
APNNSNGGSEEEITCAL [MED7] | 3.45 ± 0.13
APQLFPYGSFHQQQLQQ [DSN1] | 2.84 ± 0.09
APSANQGDEALSVDDIR [RTT102] | 3.33 ± 0.1
APTGSGKTNIALLTVLK [BRR2] | 3.07 ± 0.073
APVEVQEDFEVVEEFTP [RPS5] | 3.21 ± 0.08
AQDSLTVTIASSLNLED [RPB8] | 1.92 ± 0.044
AQDVALAKKWFLQHPDE [PRP8] | 2.38 ± 0.095

Sequence | protein stability index
AQFTFGKAATAKETHTK [YOR098C/NUP1] | 2.81 ± 0.17
AQGTKFRISLGLPVGAI [RPL23A] | 1.84 ± 0.063
AQLAKAKTELNEVSLAI [SMC2] | 2.75 ± 0.074
AQQVPPYGVYHPPFIKY [SIN4] | 1.61 ± 0.094
AQRLQISDYQQLESIYF [SWI1] | 1.95 ± 0.027
ARDIISHNFQNAIFQME [PCI8] | 2.94 ± 0.069
ARDLFLKIYYKEEFSSD [RRI2] | 2.44 ± 0.15
ARHKKKVENLDYMYENG [YML031W/NDC1] | 3.37 ± 0.14
ARIALRHLEKEGIIKPI [RPS25A] | 3.37 ± 0.16
ARNVTFDSLRNFIVHSP [GRR1] | 2.35 ± 0.057
ARQRGKLKKSEEKVLST [SRP68] | 3.21 ± 0.11
ARRTLQKLGLDETYKGV [RPL5] | 2.97 ± 0.18
ARWPAKSVKFVQGLLQN [RPL17A] | 2.17 ± 0.083
ARYYRTVAVLPPNWKYE [RPS13] | 2.1 ± 0.039
ASAASEAIRDPKNSSSP [SSN8] | 3.18 ± 0.2
ASAPLCSPKLPVEKVQR [DLS1] | 3.07 ± 0.067
ASITPYKLVNKNKENNT [RPN4] | 2.28 ± 0.092
ASLVDYVQVRQPIFVAH [RPS5] | 1.98 ± 0.069
ASLVPEGNQGSLQEDVS [MED8] | 3.24 ± 0.087
ASPHASVRTAVFSALKN [ECM29] | 1.58 ± 0.05
ASSTPIPVLGKPTDATG [YOR098C/NUP1] | 2.88 ± 0.055
ASVRIKDKFNQIPLHRA [NAS6] | 2.68 ± 0.12
ASYAKYLIDHIKVEGAV [RPL22A] | 3.13 ± 0.15
ATDISGELRDYIEDFLL [YJR042W/NUP85] | 3.31 ± 0.081
